# Laboratory results as given in patent US20160375113A1, “COMPOSITIONS COMPRISING ENO1 AND THEIR USE IN METHODS OF TREATING OBESITY OR OVERWEIGHT AND REDUCING WEIGHT GAIN” (Berg LLC, priority 2015, published 2016).
# “Also recorded” adds a separate entry of the source.
# Key:
# [1] = Storage stability by ENO1 Human Activity Assay Kit (PK/LDH, NADH consumption); format: physicochemical; conditions: 500 ng Eno1; for activity at end of study (Week 10), −20° C.: kept at −20° C.; for activity retained at end of study (Week 10), −80° C.: kept at −80° C.; for Eno1 activity after storage, week 3, 4° C., 22° C., and 37° C.: stored at 4° C.; for Eno1 activity after storage, week 3, 4° C., 22° C., and 37° C. / Eno1 activity after storage, week 3, −80° C. and −20° C.: by week 3; for Eno1 activity after storage, week 3, −80° C. and −20° C.: stored at −80° C. and −20° C.; for Eno1 activity after storage, first week: stored at −80° C., −20° C., 4° C.; for Eno1 activity after storage, week 3, 4° C., 22° C., and 37° C. / Eno1 activity after storage, first week: 22° C., and 37° C.
# Experimental: The stability of the Eno1-dendrimer-SMTP complex was evaluated at different temperatures, and stability was determined over a 3-4 month time period by measuring Eno1 activity using a commercially available Eno1 assay. The selected conjugates were also evaluated using biophysical techniques, including Dynamic Light Scattering (DLS) and UV-Vis spectroscopy to confirm complexation between the dendrimer-peptide conjugate and Eno1.
# The stability of the Enolase-I/G5-dendrimer/SMTP conjugates was measured by using the ENO1 Human Activity Assay Kit (ABCAM, Cambridge, Mass.; Catalogue No. ab117994). Briefly, the sample was added to a microplate containing a monoclonal mouse antibody specific to Eno1. The microplate was incubated at room temperature for 2 hours, and Eno1 was immunocaptured within the wells of the microplate. The wells of the microplate were washed to remove all other enzymes. Eno1 activity was determined by following the consumption of NADH in an assay buffer that included pyruvate kinase (PK), lactate dehydrogenase (LDH) and the required substrates 2-phospho-D-glycerate (2PG) and NADH. Eno1 converts 2PG to phosphoenolpyruvate, which is converted to pyruvate by PK. Pyruvate is converted to lactate by LDH, and this reaction requires NADH. The consumption of NADH was monitored as decrease of absorbance at 340 nm.
# The activity of Enolase-I/G5-dendrimer/SMTP conjugates that were stored at different temperatures at different time points was measured using the assay described above. A concentration of 500 ng of Eno1 was selected for testing because this concentration falls in the middle of the dynamic range of the assay kit. Two different sets of solutions were prepared. One set (control) contained Eno1 alone (i.e. unconjugated Eno1) and the other set contained Eno1/G5-dendrimer/SMTP mixtures. These mixtures were then kept at −80° C., −20° C., 4° C., 22° C., and 37° C. […] At the end of the study (Week 10), The Eno1/G5-dendrimer/SMTP solution that was kept at −80° C. retained about 90% of its activity whereas Eno1 alone was only 35% active. On the other hand, Eno1/G5-dendrimer/SMTP solution that was kept at −20° C. was about 24% active, whereas Eno1 alone stored at −20° C. was not active.
# [2] = Tissue distribution of detectably labeled Eno1 PAMAM dendrimer complexes in mice (LI-COR imaging); format: in vivo
# Experimental: A detectably labeled PAMAM dendrimer complex containing Eno1 was prepared using the method provided in the prior example and analyzed for tissue distribution in mice after subcutaneous injection. Specifically, for 72 hours prior to injection mice were fed alfalfa free food to limit background fluorescence. Mice were injected with 3 μg ENO1/mouse subcutaneously 150 μl total (75 μl left laterally, 75 μl right laterally). The molar ratio of dendrimer to Eno1 in the complex was 5:1. One, 4, and 24 hours post injection animals were sacrificed, skinned, and organs removed in preparation for LI-COR imaging.
# A follow-up study was performed using the skeletal muscle targeted Eno1-PAMAM dendrimer complex containing the SMTP “ASSLNIA”. A detectably labeled PAMAM dendrimer complex containing Eno1 and SMTP ((Enolase-Vivo Tag680xl)-(G5-SMTP)) was prepared using the method provided in the prior example. The molar ratio of dendrimer to SMTP in the complex was 1:1. The experiments were performed essentially as described above. The skeletal muscle targeted Eno1-PAMAM dendrimer complex was administered at a dose of 50 μg/kg body weight. These images in FIG. 6B were taken after 1 hr of injection. Organs, other than the heart, were retained in the body.
# [3] = test system: db/db mice; assay: Body weight / weight gain in db/db mice treated with rosiglitazone and muscle targeted Eno1/dendrimer complex; format: in vivo; conditions: Eno1 400 μg/kg/day subcutaneous added to rosiglitazone 20 mg/kg/day
# Experimental: A muscle targeted Eno1/dendrimer complex was generated to analyze its efficacy in reducing weight gain. The dendrimer complex comprised human Eno1, transcript variant 1 protein (SEQ ID NO: 2) which was non-covalently linked to a G5-PAMAM dendrimer/muscle targeting peptide (MTP) (ASSLNIA; SEQ ID NO: 7) conjugate. Stock solutions of Eno1 were prepared in buffer and the protein solution was mixed with the G5 dendrimer-MTP conjugate.
# Lean mice and male obese and diabetic db/db mice (male BKS.Cg-m+/+Lepr^db/J) mice were obtained from a commercial vendor. All mice were housed 2-3 per cage at 22° C. on a 12:12 hr day-night cycle and were acclimated for 3 weeks at animal facility on a standard chow diet. At 8 weeks of age, 200 μg/kg body weight Eno1 was administered twice daily (at 9:00 a.m. and 5:00 p.m., 400 μg/kg daily dose) by subcutaneous injection, and 20 mg/kg body weight rosiglitazone was administered once daily by gavage at 9:00 a.m. Lean mice and db/db mice also received subcutaneous injections of saline as a control. The treatment groups were as follows: • 1. lean mice with saline injection (control) • 2. db/db mice with saline injection (control) • 3. db/db mice with rosiglitazone (20 mg/kg, once daily) • 4. db/db mice with rosiglitazone (20 mg/kg, once daily)+Eno1 (200 μg/kg, twice daily) […]
Substance,"activity at end of study (Week 10), −20° C. [1]","activity retained at end of study (Week 10), −80° C. [1]","Eno1 activity after storage, week 3, 4° C., 22° C., and 37° C. [1]","Eno1 activity after storage, week 3, −80° C. and −20° C. [1]","Eno1 activity after storage, first week [1]",other results
"Eno1 alone: Eno1 alone (i.e. unconjugated Eno1), control in the stability study",not active,35%,no activity,significant stability,active,–
"Eno1-PAMAM dendrimer: detectably labeled PAMAM dendrimer complex containing Eno1, molar ratio of dendrimer to Eno1 5:1, no targeting peptide",–,–,–,–,–,"tissue distribution, 1 hour post injection ([2]; subcutaneous, 3 μg ENO1/mouse, dendrimer to Eno1 5:1, 1 hour (FIG. 6A)): general systemic distribution; tissue distribution, 4 hours post injection ([2]; subcutaneous, 3 μg ENO1/mouse, dendrimer to Eno1 5:1, 4 hours (FIG. 6A)): significant accumulation of the Eno1-PAMAM dendrimer was observed in liver, kidney, and subcutaneous fat, as well as in the upper torso; tissue distribution, 24 hours post injection ([2]; subcutaneous, 3 μg ENO1/mouse, dendrimer to Eno1 5:1, 24 hours (FIG. 6A)): substantially cleared and observed substantially in the liver and kidney"
Eno1/G5-dendrimer/SMTP: Eno1 complexed with Generation 5 PAMAM dendrimers decorated with Skeletal Muscle Targeting Peptides (SMTPs),about 24%,about 90%,no activity,significant stability,active; also recorded: slightly higher activity than Eno1 alone,–
Eno1: In Example 1: human Eno1 transcript variant 1 protein (SEQ ID NO: 2) non-covalently linked to G5-PAMAM dendrimer/muscle targeting peptide (ASSLNIA) conjugate,–,–,–,–,–,effect on rosiglitazone-induced weight gain [3]: attenuates rosiglitazone-induced weight gain; also recorded: attenuates rosiglitazone induced weight gain; also recorded: attenuated
"muscle-targeted Eno1 dendrimer complex: detectably labeled PAMAM dendrimer complex containing Eno1 and SMTP ASSLNIA, dendrimer to SMTP 1:1",–,–,–,–,–,"tissue distribution of muscle targeted complex, 1 hr after injection ([2]; 50 μg/kg body weight, dendrimer to SMTP 1:1, 1 hr (FIG. 6B)): targeted to skeletal muscle, not heart"
